Experimental data from the PETadex activity labels (doi:10.1016/j.ijbiomac.2024.137732).

Legend:
[1] = substrate: gfPET; experiment: Proxy for plastic degradation [Released monomer concentration (HPLC/LC-MS) (MHET+BHET+TPA)]; conditions: pH 9
[2] = substrate: gfPET; experiment: Proxy for plastic degradation [Released monomer concentration (HPLC/LC-MS) (TPA+MHET+BHET)]

B1: unnamed (protein)
chain: QELQEDWWRTGKYAIEDIADPVYSLDEEYMRDTPNLYLPKGKTGKLPVVIVIHGWGGTKEQMQPTAQLLASHGMLVLNYTAVDQNQPFQWLDGLVAAYTLLEGENRRPGSKIYNRVDFQRIGLLGHSMGAAGVLHIAAMEKPNGLRGKIKTVVSMMPYHGTTSTFTDNIAGGKDKLGCDISSTPNATLIISAELDPTNEPIGGYEFYQTLKRNKRVFFSLKGAKHIDWMKERDKKYSVAMPVITAWMLTYLCGETQYESYFREGGHYFEKWVRETLKGNVKVGRGEFPAFEIKEP
[1]
  Proxy for plastic degradation: 4 µM

B2: unnamed (protein)
chain: QTIEMAQSQIDKLAKIETDSLASYADSYTYDEEYFAENEPATIYYPKNLEGKVPAVIVVHGFNCKQKFLQKIPQHLSSHGFICITYTALDQKRPFQWPPGLMAAYEILRGESMRPDSPIYDHVDLDAVALVGHSMGGAGVLHTAMMPYPNGLRGKIKTVVGLNPYNGGPLMAEVGGGANDNLGDDLSHLDIPTMIVTGSYDIVAFPWKSFAFYNSLRGPAKHAFLSIDRMDHADWYFIPSEPKYPILRAILYSWLRAYLADDSEYRDYFVDRPGSSFDKYLKPLLSNTPNPLTRGGESFPPYVLSEEEDPLGTTN
[1]
  Proxy for plastic degradation: 2.4 µM

B3: unnamed (protein)
chain: ASEQSTKNITNVTTESDVSVYRDLMLVAGKYVFYPADFETTTKKYPVVTWANGSWCPIQTYLPIIYGLVKAGYIVVADTDLLTDDGKSTVDSVSYIIKQNKNKNSMFYKRINTKQIGSTGHSLGGQAAVNASAKDSRIKAIVSLAGKSVADEAAKVTVPALYLSGTLDMIVPSKDYVYPSYKASKGPAAYASFNNMVHFGVWIAPGNYVKYTVAWFDVYLKGDKSKLSMFKKGGDLSTDDFWINYESKNL
[2]; pH 6
  Proxy for plastic degradation: 2.5 µM
[2]; pH 7
  Proxy for plastic degradation: 5 µM
[2]; pH 8
  Proxy for plastic degradation: 10 µM
[2]; pH 9
  Proxy for plastic degradation: 15 µM
[2]; pH 9, 25 °C
  Proxy for plastic degradation: 4 µM
[2]; pH 9, 30 °C
  Proxy for plastic degradation: 6.5 µM
[2]; pH 9, 35 °C
  Proxy for plastic degradation: 12 µM
[2]; pH 9, 37 °C
  Proxy for plastic degradation: 16 µM
[2]; pH 9, 40 °C
  Proxy for plastic degradation: 20 µM
[2]; pH 9, 45 °C
  Proxy for plastic degradation: 11 µM
[2]; pH 10
  Proxy for plastic degradation: 25 µM
[2]; pH 11
  Proxy for plastic degradation: 50 µM
[1]
  Proxy for plastic degradation: 17.5 µM

B4: unnamed (protein)
chain: NADQFVQFESAAVKPTQFQERNARARGEAVNAVPGTPLQGYLTRPQGEGPFPAIVILHGCAGIHPSVKETWPERLASWGYVVLVVDSFSTRGIQNTCNNLLVDRVYDAYGALEFLSNYSFVDPKRIAVMGFSAGGIATLEAVQFGGAERLMEHKFKAAVAYYPICKAANGDMAVPTLVLVGDLDDWSPAEQCRTMMKQRSGAGSPVQLNVYKGAHHAFDAPEFKTGFEAYGHWIEYNGIAADQSVSDVHAFLRGVFGN
[1]
  Proxy for plastic degradation: 3.8 µM

B5: unnamed (protein)
chain: QELQENWWSNGKYAIEDVADPVYSFDEEYMKDVPNIYLPIGKTGKLPVVIVVHGWAAYKEQMHDTAQLLASHGMLVLVYTAMDQNQPFQWLDGIIAAYTLLEGENRRPGSKIHNRVDFQRIGLLGHSMGGTGVLFSAAMEKPNGLRGKIKTVVSLMPYHGTTNFISDAVAGGKDKLGCDVSATPNATLIISGEVDEVNEPIGGYEFYQTLTQNKRVFFSMKGTHHNDWRNKEGKESENYPIVMPVVSSWMLAYLCGERQYESFFKEGGLYFEKWIRPTLKGNVKVGRGEFPAFEIKEP
[1]
  Proxy for plastic degradation: 4 µM
